According to US20220048967A1 (published 2022):
Numbered stars: 1 amine (or outer) side, 2 acyl side, 3 side chain; on linkers, the order of the positions; unused ones are H or OH. Square brackets hold non-standard residues; d marks the D form. Side chains are listed from the residue outwards. Ends that are not written are not given here. * marks the point of attachment. C20 diacid = O=C(O)CCCCCCCCCCCCCCCCCCC(=O)*; γGlu = O=C(O)[C@H](CCC(=O)[*:2])N[*:1]; αMeL = CC(C)C[C@](C)(N)C(=O)O; Dab = NCC[C@H](N)C(=O)O; Dap = NC[C@H](N)C(=O)O; AEEA = NCCOCCOCC(=O)O; Aib = CC(C)(N)C(=O)O

T1: human gastric inhibitory peptide receptor (GIPR) (human, UniProt P48546 22-466)
T1 sequence (looked up): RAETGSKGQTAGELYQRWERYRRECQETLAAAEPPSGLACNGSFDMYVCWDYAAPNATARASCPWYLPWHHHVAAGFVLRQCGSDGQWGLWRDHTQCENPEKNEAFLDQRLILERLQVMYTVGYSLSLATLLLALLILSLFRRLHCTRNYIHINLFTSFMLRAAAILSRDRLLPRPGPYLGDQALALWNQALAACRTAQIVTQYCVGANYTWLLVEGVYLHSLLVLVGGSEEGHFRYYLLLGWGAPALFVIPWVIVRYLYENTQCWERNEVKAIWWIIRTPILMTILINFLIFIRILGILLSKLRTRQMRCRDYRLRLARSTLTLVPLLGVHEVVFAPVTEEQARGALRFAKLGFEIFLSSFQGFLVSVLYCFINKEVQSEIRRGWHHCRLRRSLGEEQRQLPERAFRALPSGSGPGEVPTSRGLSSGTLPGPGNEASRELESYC

T2: human GIP receptor (human, UniProt P48546 22-466)
T2 sequence (looked up): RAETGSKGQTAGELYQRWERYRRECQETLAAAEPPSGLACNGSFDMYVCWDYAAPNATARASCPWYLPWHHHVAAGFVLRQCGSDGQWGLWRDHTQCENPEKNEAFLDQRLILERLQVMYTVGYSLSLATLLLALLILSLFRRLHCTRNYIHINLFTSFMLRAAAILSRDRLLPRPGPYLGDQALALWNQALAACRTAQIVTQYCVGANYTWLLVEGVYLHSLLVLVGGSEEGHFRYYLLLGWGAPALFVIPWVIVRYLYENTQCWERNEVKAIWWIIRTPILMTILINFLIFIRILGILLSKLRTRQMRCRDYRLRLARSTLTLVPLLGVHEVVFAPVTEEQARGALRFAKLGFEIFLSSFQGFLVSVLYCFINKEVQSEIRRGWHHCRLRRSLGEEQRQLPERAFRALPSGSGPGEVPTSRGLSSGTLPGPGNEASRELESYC


Assays:
Test in all cases: cell-based or functional assay
[1] = target: T1, human gastric inhibitory peptide …
[2] = target: human GLP-1 receptor (GLP-1R) (human, UniProt P43220 24-463)
[3] = target: human GLP-1 receptor (human, UniProt P43220 24-463)
[4] = target: T2, human GIP receptor

Row | Binder | hGIPR cAMP EC50 ratio [1] | hGIPR cAMP Rel EC50 [1] [pM] | hGLP1R cAMP EC50 ratio [2] | hGLP1R cAMP Rel EC50 [2] [pM] | hGLP1R cAMP Rel EC50 [3] [pM] | hGLP1R cAMP EC50 ratio [3] | hGIPR cAMP EC50 ratio [4] | hGIPR cAMP Rel EC50 [4] [pM]
1 | XXEGTFTSDYSIXLDKKAQXAFIXYLIAGGPSSGAPPPS (D-Tyr1, Aib2, αMeL13, (2-[2-(2-Amino-ethoxy)-ethoxy]-acetyl)2-(γ-Glu)-CO-(CH2)18-CO2H on K17, Aib20, D-Glu24, C-terminal NH2) [Example 352] | 0.815 | 127 | 0.201 | 142 |  |  |  | 
2 | YXEGTFTSDYSILLDKKAQXAFIEYLIEGGPSSGAPPPS (Aib2; K17((2-[2-(2-Amino-ethoxy)-ethoxy]-acetyl)-(ϵK)-(ϵK)-CO-(CH2)18-CO2H); Aib20; C-terminal NH2) [Example 114] |  |  |  |  | 267 |  |  | 
3 | YXEGTFTSDYSILLDKKAQXAFIEYLIEGGPSSGAPPPS (αMePro2; K17((2-[2-(2-Amino-ethoxy)-ethoxy]-acetyl)2-(γ-Glu)-CO-(CH2)18-CO2H); Aib20; C-terminal NH2) [Example 87] |  |  |  |  | 80.1 |  |  | 
4 | XXEGTFTSDYSIXLDKKAQXAFIXYLIEGGPSSGAPPPS (D-Tyr1, Aib2, αMeL13, (2-[2-(2-Amino-ethoxy)-ethoxy]-acetyl)2-(γ-Glu)-CO-(CH2)18-CO2H on K17, Aib20, D-Glu24, C-terminal NH2) [Example 356] | 0.364 | 386 | 0.0647 | 506 |  |  |  | 
5 | YXEGTFTSDYSILLDKKAQXAFIEYLIEGGPSSGAPPPS (Aib2; K17((2-[2-(2-Amino-ethoxy)-ethoxy]-acetyl)-AOC-(γ-Glu)-CO-(CH2)18-CO2H); Aib20; C-terminal NH2) [Example 108] |  |  |  |  | 294 |  |  | 
6 | XXEGTFTSDYSIXLDXKAQXEFIXYLIAGGPSSGAPPPS (D-Tyr1, Aib2, αMeL13, Orn16, (2-[2-(2-Amino-ethoxy)-ethoxy]-acetyl)2-(γ-Glu)-CO-(CH2)18-CO2H on K17, Aib20, D-Glu24, C-terminal NH2) [Example 354] | 0.441 | 233 | 0.0517 | 540 |  |  |  | 
7 | XXEGTFTSDYSIXLDXKAQXAFIXYLIEGGPSSGAPPPS (D-Tyr1, Aib2, αMeL13, Orn16, (2-[2-(2-Amino-ethoxy)-ethoxy]-acetyl)2-(γ-Glu)-CO-(CH2)18-CO2H on K17, Aib20, D-Glu24, C-terminal NH2) [Example 357] | 0.366 | 384 | 0.181 | 181 |  |  |  | 
8 | XXEGTFTSDYSIXLDXKAQXEFIXYLIEGGPSSGAPPPS (D-Tyr1, Aib2, αMeL13, Orn16, (2-[2-(2-Amino-ethoxy)-ethoxy]-acetyl)2-(γ-Glu)-CO-(CH2)18-CO2H on K17, Aib20, D-Glu24, C-terminal NH2) [Example 355] | 0.111 | 685 | 0.0285 | 896 |  |  |  | 
9 | XXEGTFTSDYSIXLDXKAQXAFVEYLIAGGPSSGAPPPS (D-Tyr1, Aib2, αMeL13, Orn16, (2-[2-(2-Amino-ethoxy)-ethoxy]-acetyl)2-(γ-Glu)-CO-(CH2)18-CO2H on K17, Aib20, C-terminal NH2) [Example 358] | 0.662 | 183 | 0.26 | 117 |  |  |  | 
10 | XXEGTFTSDYSIXLDKKAQXEFIXYLIEGGPSSGAPPPS (D-Tyr1, Aib2, αMeL13, (2-[2-(2-Amino-ethoxy)-ethoxy]-acetyl)2-(γ-Glu)-CO-(CH2)18-CO2H on K17, Aib20, D-Glu24, C-terminal NH2) [Example 353] | 0.145 | 497 | 0.0231 | 1090 |  |  |  | 
11 | YXEGTFTSDYSILLDKKAQXAFIEYLIEGGPSSGAPPPS (Aib2; K17((2-[2-(2-Amino-ethoxy)-ethoxy]-acetyl)-(Trx)-(γ-Glu)-CO-(CH2)18-CO2H); Aib20; C-terminal NH2) [Example 111] |  |  |  |  | 308 |  |  | 
12 | Y[Aib]EGTFTSDK([AEEA-AEEA-γGlu-C20 diacid])SILLDKIAQ[Aib]AFIEYLIEGGPSSGAPPPS-NH2 (N-terminus assumed; SMILES CC[C@H](C)[C@H](NC(=O)[C@H](CCCCN)NC(=O)[C@H](CC(=O)O)NC(=O)[C@H](CC(C)C)NC(=O)[C@H](CC(C)C)NC(=O)[C@@H](NC(=O)[C@H](CO)NC(=O)[C@H](CCCCNC(=O)COCCOCCNC(=O)COCCOCCNC(=O)CC[C@H](NC(=O)CCCCCCCCCCCCCCCCCCC(=O)O)C(=O)O)NC(=O)[C@H](CC(=O)O)NC(=O)[C@H](CO)NC(=O)[C@@H](NC(=O)[C@H](Cc1ccccc1)NC(=O)[C@@H](NC(=O)CNC(=O)[C@H](CCC(=O)O)NC(=O)C(C)(C)NC(=O)[C@@H](N)Cc1ccc(O)cc1)[C@@H](C)O)[C@@H](C)O)[C@@H](C)CC)C(=O)N[C@@H](C)C(=O)N[C@@H](CCC(N)=O)C(=O)NC(C)(C)C(=O)N[C@@H](C)C(=O)N[C@@H](Cc1ccccc1)C(=O)N[C@H](C(=O)N[C@@H](CCC(=O)O)C(=O)N[C@@H](Cc1ccc(O)cc1)C(=O)N[C@@H](CC(C)C)C(=O)N[C@H](C(=O)N[C@@H](CCC(=O)O)C(=O)NCC(=O)NCC(=O)N1CCC[C@H]1C(=O)N[C@@H](CO)C(=O)N[C@@H](CO)C(=O)NCC(=O)N[C@@H](C)C(=O)N1CCC[C@H]1C(=O)N1CCC[C@H]1C(=O)N1CCC[C@H]1C(=O)N[C@@H](CO)C(N)=O)[C@@H](C)CC)[C@@H](C)CC) [Example 23] |  |  |  |  | 190 | 0.342 | 0.754 | 204
13 | [dY][Aib]EGTFTSDYSI[αMeL]LD[Dab]K([AEEA-AEEA-γGlu-C20 diacid])AQ[Aib]EFIEYLIAGGPSSGAPPPS-NH2 (N-terminus assumed; SMILES CC[C@H](C)[C@H](NC(=O)[C@H](CC(C)C)NC(=O)[C@H](Cc1ccc(O)cc1)NC(=O)[C@H](CCC(=O)O)NC(=O)[C@@H](NC(=O)[C@H](Cc1ccccc1)NC(=O)[C@H](CCC(=O)O)NC(=O)C(C)(C)NC(=O)[C@H](CCC(N)=O)NC(=O)[C@H](C)NC(=O)[C@H](CCCCNC(=O)COCCOCCNC(=O)COCCOCCNC(=O)CC[C@H](NC(=O)CCCCCCCCCCCCCCCCCCC(=O)O)C(=O)O)NC(=O)[C@H](CCN)NC(=O)[C@H](CC(=O)O)NC(=O)[C@H](CC(C)C)NC(=O)[C@](C)(CC(C)C)NC(=O)[C@@H](NC(=O)[C@H](CO)NC(=O)[C@H](Cc1ccc(O)cc1)NC(=O)[C@H](CC(=O)O)NC(=O)[C@H](CO)NC(=O)[C@@H](NC(=O)[C@H](Cc1ccccc1)NC(=O)[C@@H](NC(=O)CNC(=O)[C@H](CCC(=O)O)NC(=O)C(C)(C)NC(=O)[C@H](N)Cc1ccc(O)cc1)[C@@H](C)O)[C@@H](C)O)[C@@H](C)CC)[C@@H](C)CC)C(=O)N[C@@H](C)C(=O)NCC(=O)NCC(=O)N1CCC[C@H]1C(=O)N[C@@H](CO)C(=O)N[C@@H](CO)C(=O)NCC(=O)N[C@@H](C)C(=O)N1CCC[C@H]1C(=O)N1CCC[C@H]1C(=O)N1CCC[C@H]1C(=O)N[C@@H](CO)C(N)=O) [Example 350] | 0.741 | 189 | 0.307 | 107 |  |  |  | 
14 | YXEGTXTSDYSIXLDXKAQXEFIXYLIEGGPSSGAPPPS (Aib2; αMeF(2F)6; αMeL13; Orn16; K17((2-[2-(2-Amino-ethoxy)-ethoxy]-acetyl)2-(γ-Glu)-CO-(CH2)18-CO2H); Aib20; D-Glu24; C-terminal NH2) [Example 3] |  |  |  |  |  |  |  | 41.1
15 | [dY][Aib]EGTFTSDYSI[αMeL]LD[Dap]K([AEEA-AEEA-γGlu-C20 diacid])AQ[Aib]EFIEYLIAGGPSSGAPPPS-NH2 (N-terminus assumed; SMILES CC[C@H](C)[C@H](NC(=O)[C@H](CC(C)C)NC(=O)[C@H](Cc1ccc(O)cc1)NC(=O)[C@H](CCC(=O)O)NC(=O)[C@@H](NC(=O)[C@H](Cc1ccccc1)NC(=O)[C@H](CCC(=O)O)NC(=O)C(C)(C)NC(=O)[C@H](CCC(N)=O)NC(=O)[C@H](C)NC(=O)[C@H](CCCCNC(=O)COCCOCCNC(=O)COCCOCCNC(=O)CC[C@H](NC(=O)CCCCCCCCCCCCCCCCCCC(=O)O)C(=O)O)NC(=O)[C@H](CN)NC(=O)[C@H](CC(=O)O)NC(=O)[C@H](CC(C)C)NC(=O)[C@](C)(CC(C)C)NC(=O)[C@@H](NC(=O)[C@H](CO)NC(=O)[C@H](Cc1ccc(O)cc1)NC(=O)[C@H](CC(=O)O)NC(=O)[C@H](CO)NC(=O)[C@@H](NC(=O)[C@H](Cc1ccccc1)NC(=O)[C@@H](NC(=O)CNC(=O)[C@H](CCC(=O)O)NC(=O)C(C)(C)NC(=O)[C@H](N)Cc1ccc(O)cc1)[C@@H](C)O)[C@@H](C)O)[C@@H](C)CC)[C@@H](C)CC)C(=O)N[C@@H](C)C(=O)NCC(=O)NCC(=O)N1CCC[C@H]1C(=O)N[C@@H](CO)C(=O)N[C@@H](CO)C(=O)NCC(=O)N[C@@H](C)C(=O)N1CCC[C@H]1C(=O)N1CCC[C@H]1C(=O)N1CCC[C@H]1C(=O)N[C@@H](CO)C(N)=O) [Example 351] | 0.47 | 298 | 0.22 | 149 |  |  |  | 
